Values joined by “and” are separate entries in the source; they are usually repeats but may differ in a detail not shown here. Identical values can stand only once.
B1: 115L3, 72A (protein, listed as Rattus norvegicus)
chain: AFDGTWKVDRNENYEKFMEKMGINVVKRKLGAHDNLKLTITQEGNKFTVKESSNFRNIDVVFELGVDFAYSAADGTELTGTWTMEGNKLVGKFKRVDNGKELIAVREISGNELILTYTYEGVEAKRIFKKE
modifications: PEPTIDE (1)...(131) wild-type rat intestinal fatty acid binding protein
B2: 78F, 72A (protein, listed as Rattus norvegicus)
chain: AFDGTWKVDRNENYEKFMEKMGINVVKRKLGAHDNLKLTITQEGNKFTVKESSNFRNIDVVFELGVDFAYSAADGTEFTGTWTMEGNKLVGKFKRVDNGKELIAVREISGNELIQTYTYEGVEAKRIFKKE
modifications: PEPTIDE (1)...(131) wild-type rat intestinal fatty acid binding protein
B3: 115S1, 72A (protein, listed as Rattus norvegicus)
chain: AFDGTWKVDRNENYEKFMEKMGINVVKRKLGAHDNLKLTITQEGNKFTVKESSNFRNIDVVFELGVDFAYSAADGTELTGTWTMEGNKLVGKFKRVDNGKELIAVREISGNELISTYTYEGVEAKRIFKKE
modifications: PEPTIDE (1)...(131) wild-type rat intestinal fatty acid binding protein
B4: 117A, 72A (protein, listed as Rattus norvegicus)
chain: AFDGTWKVDRNENYEKFMEKMGINVVKRKLGAHDNLKLTITQEGNKFTVKESSNFRNIDVVFELGVDFAYSAADGTELTGTWTMEGNKLVGKFKRVDNGKELIAVREISGNELIQTATYEGVEAKRIFKKE
modifications: PEPTIDE (1)...(131) wild-type rat intestinal fatty acid binding protein
B5: 115P1, 72A (protein, listed as Rattus norvegicus)
chain: AFDGTWKVDRNENYEKFMEKMGINVVKRKLGAHDNLKLTITQEGNKFTVKESSNFRNIDVVFELGVDFAYSAADGTELTGTWTMEGNKLVGKFKRVDNGKELIAVREISGNELIPTYTYEGVEAKRIFKKE
modifications: PEPTIDE (1)...(131) wild-type rat intestinal fatty acid binding protein
B6: 115Y1, 72A (protein, listed as Rattus norvegicus)
chain: AFDGTWKVDRNENYEKFMEKMGINVVKRKLGAHDNLKLTITQEGNKFTVKESSNFRNIDVVFELGVDFAYSAADGTELTGTWTMEGNKLVGKFKRVDNGKELIAVREISGNELIYTYTYEGVEAKRIFKKE
modifications: PEPTIDE (1)...(131) wild-type rat intestinal fatty acid binding protein
B7: 102C, 72A (protein, listed as Rattus norvegicus)
chain: AFDGTWKVDRNENYEKFMEKMGINVVKRKLGAHDNLKLTITQEGNKFTVKESSNFRNIDVVFELGVDFAYSAADGTELTGTWTMEGNKLVGKFKRVDNGKECIAVREISGNELIQTYTYEGVEAKRIFKKE
modifications: PEPTIDE (1)...(131) wild-type rat intestinal fatty acid binding protein
B8: 117D, 72A (protein, listed as Rattus norvegicus)
chain: AFDGTWKVDRNENYEKFMEKMGINVVKRKLGAHDNLKLTITQEGNKFTVKESSNFRNIDVVFELGVDFAYSAADGTELTGTWTMEGNKLVGKFKRVDNGKELIAVREISGNELIQTDTYEGVEAKRIFKKE
modifications: PEPTIDE (1)...(131) wild-type rat intestinal fatty acid binding protein
B9: 115V2, 72A (protein, listed as Rattus norvegicus)
chain: AFDGTWKVDRNENYEKFMEKMGINVVKRKLGAHDNLKLTITQEGNKFTVKESSNFRNIDVVFELGVDFAYSAADGTELTGTWTMEGNKLVGKFKRVDNGKELIAVREISGNELIVTYTYEGVEAKRIFKKE
modifications: PEPTIDE (1)...(131) wild-type rat intestinal fatty acid binding protein
B10: 115N2, 72A (protein, listed as Rattus norvegicus)
chain: AFDGTWKVDRNENYEKFMEKMGINVVKRKLGAHDNLKLTITQEGNKFTVKESSNFRNIDVVFELGVDFAYSAADGTELTGTWTMEGNKLVGKFKRVDNGKELIAVREISGNELINTYTYEGVEAKRIFKKE
modifications: PEPTIDE (1)...(131) wild-type rat intestinal fatty acid binding protein
B11: 115T3, 72A (protein, listed as Rattus norvegicus)
chain: AFDGTWKVDRNENYEKFMEKMGINVVKRKLGAHDNLKLTITQEGNKFTVKESSNFRNIDVVFELGVDFAYSAADGTELTGTWTMEGNKLVGKFKRVDNGKELIAVREISGNELITTYTYEGVEAKRIFKKE
modifications: PEPTIDE (1)...(131) wild-type rat intestinal fatty acid binding protein
B12: 38Y, 72A (protein, listed as Rattus norvegicus)
chain: AFDGTWKVDRNENYEKFMEKMGINVVKRKLGAHDNLKYTITQEGNKFTVKESSNFRNIDVVFELGVDFAYSAADGTELTGTWTMEGNKLVGKFKRVDNGKELIAVREISGNELIQTYTYEGVEAKRIFKKE
modifications: PEPTIDE (1)...(131) wild-type rat intestinal fatty acid binding protein
B13: 21Y, 72A (protein, listed as Rattus norvegicus)
chain: AFDGTWKVDRNENYEKFMEKYGINVVKRKLGAHDNLKLTITQEGNKFTVKESSNFRNIDVVFELGVDFAYSAADGTELTGTWTMEGNKLVGKFKRVDNGKELIAVREISGNELIQTYTYEGVEAKRIFKKE
modifications: PEPTIDE (1)...(131) wild-type rat intestinal fatty acid binding protein
B14: 117C, 72A (protein, listed as Rattus norvegicus)
chain: AFDGTWKVDRNENYEKFMEKMGINVVKRKLGAHDNLKLTITQEGNKFTVKESSNFRNIDVVFELGVDFAYSAADGTELTGTWTMEGNKLVGKFKRVDNGKELIAVREISGNELIQTCTYEGVEAKRIFKKE
modifications: PEPTIDE (1)...(131) wild-type rat intestinal fatty acid binding protein
B15: 115R1, 72A (protein, listed as Rattus norvegicus)
chain: AFDGTWKVDRNENYEKFMEKMGINVVKRKLGAHDNLKLTITQEGNKFTVKESSNFRNIDVVFELGVDFAYSAADGTELTGTWTMEGNKLVGKFKRVDNGKELIAVREISGNELIRTYTYEGVEAKRIFKKE
modifications: PEPTIDE (1)...(131) wild-type rat intestinal fatty acid binding protein

Assays:
Format in all cases: binding
[1] = Probe fluorescence ratio response to linoleic acid relative to ADIFAB2; details: response relative to ADIFAB2
Summary of the method: (§1)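 Fluorescently labeled rat intestinal FABP variants were read at two emission wavelengths, near the unbound maximum (about 420 to 480 nm) and the FFA-bound maximum (about 495 to 580 nm). R = Fλ1/Fλ2 after subtracting probe-free intensity; ΔR = R+agent − R0, normalized to ADIFAB2 (rI-FABP-L72A).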

[2] = Probe fluorescence ratio response to linolenic acid relative to ADIFAB2; details: response relative to ADIFAB2
Summary of the method: as §1

[3] = Probe fluorescence ratio response to palmitic acid relative to ADIFAB2; details: response relative to ADIFAB2
Summary of the method: as §1

[4] = Probe fluorescence ratio response to arachidonic acid relative to ADIFAB2; details: arachidonic acid; response relative to ADIFAB2
Summary of the method: as §1

[5] = Probe fluorescence ratio response to oleic acid relative to ADIFAB2; details: response relative to ADIFAB2
Summary of the method: as §1

Molecule	DR/DR LA [1]	DR/DR LNA [2]	DR/DR PA [3]	DR/DR AA [4]	DR/DR OA [5]
B1	1.24	1.29	1.15	1.26	1.25
B2	1.955	2.033	1.416	2.001	1.912
B3	1.51	1.51	0.77	1.55	1.41
B4	1.01 and 1.045	0.62 and 0.631	0.32 and 0.331	1.27 and 1.332	0.93 and 0.947
B5	1.37	1.35	0.70	−0.17	1.26
B6	1.38	1.27	0.73	1.42	1.23
B7	0.12	0.12	0.09	0.14	0.11
B8	0.44 and 0.380	0.44 and 0.407	0.17 and 0.142	0.41 and 0.352	0.35 and 0.294
B9	0.87	0.93	0.85	0.84	0.91
B10	0.78	0.73	0.56	0.92	0.71
B11	0.45	0.54	0.49	0.57	0.46
B12	1.818	1.884	1.518	2.081	1.717
B13	2.015	1.881	1.094	2.378	1.982
B14	−0.19	−0.13	−0.12	−0.17	−0.24
B15	1.45	1.43	0.70	1.40	1.36

Source: US20060257938A1, “Method of screening for drugs that block ligand binding to a lipid binding protein” (priority 2005, published 2006)
